# Data: article PMC10869282
# Tests used:
# [1] = target: cis-epoxysuccinate hydrolase producing L(+)-tartaric acid from Klebsiella sp. BK-58 (KlCESH[L]) (Klebsiella sp. BK-58); experiment: SEC; gel filtration of the purified enzyme against a molecular standard mixture (ovalbumin, chymotrypsin, ribonuclease A, aprotinin); aggregation state of RhCESH[L] unchanged in the presence or absence of DTT
# [2] = target: cis-epoxysuccinate hydrolase producing L(+)-tartaric acid from Rhodococcus opacus (RhCESH[L]) (Rhodococcus opacus); experiment: as above
stoichiometry N [1],stoichiometry N [2],Substance
2,,cis-epoxysuccinate hydrolase producing L(+)-tartaric acid from Klebsiella sp. BK-58 (KlCESH[L]) (enzyme)
,2,cis-epoxysuccinate hydrolase producing L(+)-tartaric acid from Rhodococcus opacus (RhCESH[L]) (enzyme)
